Results on one substance are retold here after PMC3798187.

Assay [1] deals with FLAG-RACK1 WD1–4 (human RACK1 in which WD40 domains 5 to 7 have been deleted) (human). Put plainly: co-IP; anti-FLAG immunoprecipitation (protein A magnetic beads) from extracts of mRNA-injected Xenopus embryos in EB buffer, 1 h at 4°C; Western blots with anti-xMELK, anti-RACK1, anti-FLAG or anti-myc antibodies; uninjected embryos as control. (Immunoblotting shows a protein as a band on a membrane.)

Assay [2] deals with FLAG-RACK1 WD5–7 (human RACK1 in which WD40 domains 1 to 4 have been deleted) (human). The assay is described as above.

With “myc-tagged xMELK (from UniProt Q91821 1-651) (enzyme)”, the fold of myc-xMELK co-immunoprecipitated (myc/FLAG ratio) compared to full length FLAG-RACK1 was 2.1 times in assay [1] and 0.7 times in assay [2].
